Biological target: α‐synuclein preformed fibrils (UniProt P37840 1-140)
Test: SPR

B1: Recombinant mouse 24p3R protein (receptor)
chain: MPSARFGRRGIVLLTLGLVGPCGVGGAAAGSSTGIMALRFLLGFLLAGVDLGVYLMRLELCDPTQRLRVALAGELVGVGGHFLFLGLALVSKDWRFLQRMITAPCILFLFYGWPGLFLESARWLIVKRQIEEAQSVLRILAERNRPHGQMLGEEAQEALQELENTCPLPATSTFSFASLLNYRNIWKNLLILGFTNFIAHAIRHCYQPVGGGGSPSDFYLCSLLASGTAALACVFLGVTVDRFGRRGILLLSMTLTGIASLVLLGLWDYLNDAAITTFSVLGLFSSQASAILSTLLASEVIPTTVRGRGLGLIMALGALGGLSCPAQRLHMGHGAFLQHVVLAACALLCILSIMLLPETKRKLLPEVLRDGELCRRPSLLRQPPPNRCDHVPLLATPNPAL
Kd: 6.67 µM
